Reference: US20240207464A1

What was measured:
[1] = biological target: Protein G (Dynabeads Protein G, Thermo Fisher Scientific) (UniProt P19909); experiment: immunoprecipitation with Dynabeads Protein G after storage in rat plasma at 37 C, 0 day point
[2] = biological target: Protein G (Dynabeads Protein G, Thermo Fisher Scientific) (UniProt P19909); experiment: immunoprecipitation with Dynabeads Protein G after storage in rat plasma at 37 C, 1 day point
[3] = biological target: Protein G (Dynabeads Protein G, Thermo Fisher Scientific) (UniProt P19909); experiment: immunoprecipitation with Dynabeads Protein G after storage in rat plasma at 37 C, 7 day point
[4] = biological target: Protein G (Dynabeads Protein G, Thermo Fisher Scientific) (UniProt P19909); experiment: immunoprecipitation with Dynabeads Protein G after storage in human plasma at 37 C, 1 day point
[5] = biological target: Protein G (Dynabeads Protein G, Thermo Fisher Scientific) (UniProt P19909); experiment: immunoprecipitation with Dynabeads Protein G after storage in human plasma at 37 C, 7 day point
[6] = biological target: Protein G (Dynabeads Protein G, Thermo Fisher Scientific) (UniProt P19909); experiment: immunoprecipitation with Dynabeads Protein G after storage in mouse plasma at 37 C, 0 day point
[7] = biological target: Protein G (Dynabeads Protein G, Thermo Fisher Scientific) (UniProt P19909); experiment: immunoprecipitation with Dynabeads Protein G after storage in mouse plasma at 37 C, 1 day point
[8] = biological target: Protein G (Dynabeads Protein G, Thermo Fisher Scientific) (UniProt P19909); experiment: immunoprecipitation with Dynabeads Protein G after storage in mouse plasma at 37 C, 7 day point
[9] = biological target: Protein G (Dynabeads Protein G, Thermo Fisher Scientific) (UniProt P19909); experiment: immunoprecipitation with Dynabeads Protein G after storage in human plasma at 37 C, 14 day point
[10] = biological target: Protein G (Dynabeads Protein G, Thermo Fisher Scientific) (UniProt P19909); experiment: immunoprecipitation with Dynabeads Protein G after storage in monkey plasma at 37 C, 0 day point
[11] = biological target: Protein G (Dynabeads Protein G, Thermo Fisher Scientific) (UniProt P19909); experiment: immunoprecipitation with Dynabeads Protein G after storage in monkey plasma at 37 C, 1 day point
[12] = biological target: Protein G (Dynabeads Protein G, Thermo Fisher Scientific) (UniProt P19909); experiment: immunoprecipitation with Dynabeads Protein G after storage in monkey plasma at 37 C, 7 day point
[13] = biological target: Protein G (Dynabeads Protein G, Thermo Fisher Scientific) (UniProt P19909); experiment: immunoprecipitation with Dynabeads Protein G after storage in human plasma at 37 C, 0 day point; share of radioactivity bound to Protein G

## radioconjugate (Example 1): conjugate with rituximab by using 225Ac-labeled DOTAGA-DBCO (antibody)
[1]
  recovery rate (%) by beads: 97.4%
[2]
  recovery rate (%) by beads: 94.8%
[3]
  recovery rate (%) by beads: 90.4%
[4]
  recovery rate (%) by beads: 90.5%
[5]
  recovery rate (%) by beads: 81%
[6]
  recovery rate (%) by beads: 98.1%
[7]
  recovery rate (%) by beads: 95%
[8]
  recovery rate (%) by beads: 93.1%
[9]
  recovery rate (%) by beads: 76.4%
[10]
  recovery rate (%) by beads: 92.9%
[11]
  recovery rate (%) by beads: 90.4%
[12]
  recovery rate (%) by beads: 90.5%
[13]
  recovery rate (%) by beads: 95%
